According to patent US7094554 (University of Texas, dated 2006):

B1: PBW-866 expressed protein (BT-R2 aa 1210-1496), 32 kD (receptor)
chain: EEGKEFEVTIRATDGGTEPRSYSTDSTITVLFVPTLGDPIFQDNTYSVAFFEKEVGLTERFSLPHAEDPKNKLCTDDCHDIYYRIFGGVDYEPFDLDPVTNVIFLKSELDRETTATHVVQVAASNSPTGGGIPLPGSLLTVTVTVREADPRPVFEQRLYTAGISTSDNINRELLTVRATHSENAQLTYTIEDGSMAVDSTLEAVKDSAFHLNAQTGVLILRIQPTASMQGMFEFNVIATDPDEKTDTAEVKVYLISSQNRVSFIFLNDVETVESNRDFIAETFSVGF
notes: also called 32 kD protein
B2: PBW-421 expressed protein (BT-R2 aa 1367-1496), 21 kD (receptor)
chain: LYTAGISTSDNINRELLTVRATHSENAQLTYTIEDGSMAVDSTLEAVKDSAFHLNAQTGVLILRIQPTASMQGMFEFNVIATDPDEKTDTAEVKVYLISSQNRVSFIFLNDVETVESNRDFIAETFSVGF
notes: also called 21 kD protein

Tests used:
[1] = target: T1, Cry1Ab toxin (trypsinized 60 kD toxin) (Bacillus thuringiensis, UniProt P0A370 29-620, limits assumed, radioiodinated (125I, chloramine T) where used as labelled ligand); assay: competition ligand blot, 125I-Cry1Ab with unlabeled Cry1Ab on the 32 kD protein, gamma counting
T1 construct: domain: soluble trypsinized 60 kD toxin; also called Cry lAb

[2] = target: T1, Cry1Ab toxin (trypsinized 60 kD toxin); assay: blot of E. coli lysate incubated with Cry1Ab toxin, then anti-toxin antiserum

| Binder | Kd [1] [nM] | binding result [2] |
| --- | --- | --- |
| B1 | ~17 |  |
| B2 |  | no binding |
